{"source": "patent US7998460B2", "about": "“Prevention of deficits in neurogenesis with anti-inflammatory agents” (The Board of Trustees of the Leland Stanford Junior …, priority 2003, dated 2011)", "molecules": {"B1": {"name": "IL-6: recombinant rat interleukin-6 (protein)", "chain": "FPTSQVRRGDFTEDTTPNRPVYTTSQVGGLITHVLWEIVEMRKELCNGNSDCMNNDDALAENNLKLPEIQRNDGCYQTGYNQEICLLKISSGLLEYHSYLEYMKNNLKDNKKDKARVLQRDTETLIHIFNQEVKDLHKIVLPTPISNALLTDKLESQKEWLRTKTIQFILKSLEEFLKVTLRSTRQT"}}, "type_in_all_cases": "cell-based, rat", "key": {"[1]": {"tested_on": "adult hippocampus-derived neural precursor cells", "experiment": "In vitro neuronal differentiation (doublecortin) of hippocampal neural progenitor cells, 60 hours", "conditions": "60 hours", "description": "Neuroinflammation could inhibit neurogenesis by a variety of mechanisms, including stimulation of the HPA axis with subsequent elevation of gluccocorticoids, alterations in the relationships between progenitor cells and cells of the neuro-vasculature, or direct effects of activated microglia on the precursor cells. To determine the extent to which microglial activation might directly affect neural stem/progenitor cells, microglia were stimulated in vitro with LPS. LPS is a potent activator of microglia and up-regulates the elaboration of pro-inflammatory cytokines, including IL-6 and TNF-α. LPS-stimulated or resting microglia were then co-cultured with normal neural stem cells from the hippocampus under conditions that typically stimulate the differentiation of 30 to 40% of the progenitor cells into immature Dcx-expressing neurons (normalized to a value of 1 in FIG. 2A, control). Neurogenesis in the presence of microglia was assessed as the increase or decrease in Dcx-expressing cells relative to control. Co-culture with activated, but not resting, microglia decreased in vitro neurogenesis to approximately half of control levels (FIG. 2A). LPS added directly to precursor cells had no effect on neurogenesis.\nTo determine if this effect was due to soluble factors or due to cell-cell contact, hippocampal precursor cells were differentiated in the presence of media pre-conditioned by resting or activated microglia.\nActivated microglia produce the potent pro-inflammatory cytokines interleukin-1β (IL-1β), tumor necrosis factor-α (TNF-α), interferon-γ (INF-γ) and interleukin-6 (IL-6). Progenitor cells were allowed to differentiate in the presence of each cytokine and the relative expression of Dcx was scored after 60 hours. […] Addition of neutralizing anti-IL-6 antibody to CM from activated microglia was able to fully restore in vitro neurogenesis (FIG. 2A). This implicated IL-6 as a key inhibitor of neurogenesis in microglial CM. […] In contrast to neurogenesis, gliogenesis was unaffected by IL-6 exposure as indicated by the lack of change in the number of cells expressing the astrocyte (glial fibrillary acidic protein, GFAP) or early oligodendrocyte (NG2) markers relative to control cultures (FIG. 2E). The hippocampal precursors used in this study do express the IL-6 receptor, as confirmed by RT-PCR (FIG. 5).\nProgenitor Cell Culture Adult hippocampus-derived neural precursor cells were isolated from adult rat hippocampus and cultured as previously described. Briefly, adult female Fisher-344 rats were deeply anesthetized with sodium pentobarbital and were dissected immediately. Hippocampi were enzymatically dissociated with papain (2.5 U/ml; Worthington, Freehold, N.J.)-dispase II (1 U/ml; Boehringer Mannheim, Indianapolis, Ind.)-DNase I (250 U/ml, Worthington) solution. Digested tissue was then washed with DMEM-10% fetal calf serum (FCS) and subsequently mixed with PBS-equilibrated Percoll solution to a final concentration of 35% Percoll. The Percoll solution was made by mixing nine parts of Percoll (Amersham Pharmacia Biotech, Uppsala, Sweden) with one part of 10× PBS. The cell suspension was then fractionated by centrifugation for 10 min at 1000×gravity. Floating myelin and tissue debris were discarded and the cell pellet re-suspended in 65% Percoll solution and fractionated again by centrifugation for 10 min at 1000×g. The floating neural precursors were collected, washed free of Percoll, and plated onto poly-L-ornithine/laminin-coated dishes in DMEM/F12 (1:1) containing 10% FCS medium for 24 hrs; then medium was replaced with serum-free growth medium consisting of DMEM/F12 (1:1) supplemented with N2 supplement (Life Technologies, Gaithersburg, Md.) and 20 ng/ml of human recombinant FGF-2 (Peprotech, Rocky Hill, N.J.). Cell lines were labeled via infection with replication deficient GFP-expressing recombinant retrovirus LZRS-CAMut4GFP. […]"}, "Hes1 mRNA": {"tested_on": "Hes1 mRNA", "experiment": "Real-time quantitative RT-PCR of Hes1 in neural precursors", "conditions": "60 hours exposure", "description": "Signaling via gp130, the co-receptor of the IL-6 receptor, stimulates the Notch1 pathway, resulting in an increase in expression of the mammalian homolog of hairy-enhancer-of-split, Hes 1, transcription factor and antagonism of pro-neural basic helix-loop-helix (bHLH) genes and hippocampal neurogenesis during development. To determine if IL-6 treatment of adult stem cells leads to an increase in Hes 1 consistent with the reduction in neuronal cell fate, “real-time” quantitative RT-PCR was performed on total RNA extracted from neural precursors exposed for 60 hours to activated microglial CM or IL-6. Both CM and IL-6 caused a dramatic increase in Hes1 mRNA expression (3.2- and 7.7-fold increase respectively, relative to control).\nTotal RNA isolation, cDNA synthesis, and SYBR Green real-time quantitative RT-PCR. […] Quantitative SYBR Green real time PCR was carried out as described previously. […] Quantitative RT-PCR was performed on ABI 5700 PCR instrument (PerkinElmer Life Sciences) by using 3-stage program parameters provided by the manufacturer as follows; 2 min at 50° C., 10 min at 95° C., and then 40 cycles of 15 s at 95° C. and 1 min at 60° C. […] Each sample was tested in five copies with quantitative PCR, and samples obtained from three independent experiments were used to calculate the means and standard deviations. […]"}, "[2]": {"tested_on": "adult hippocampus-derived neural precursor cells", "experiment": "Proliferation (BrdU) and survival (TUNEL) assays in differentiating neural precursor cultures", "description": "Proliferation and survival assays BrdU was added to the culture media from hour 24 to hour 48 of the 60 hour paradigm. Immunocytochemistry and confocal microscopy was then used to determine the fraction of GFP+ cells that labeled with BrdU, TUNEL, or type III β-tubulin or doublecortin. TUNEL staining was performed with Apoptag Red (Serologicals, Norcross, Ga.). The fraction of total (DAPI+) nuclei that were TUNEL+ were determined, as well as the fraction of doublecortin positive cells that were also TUNEL+."}}}
{"molecule": "B1", "values": [{"measurement": "gliogenesis (cells expressing GFAP or NG2 relative to control)", "setting": "[1]; IL-6 50 ng/ml", "value": "unaffected"}, {"measurement": "decrease of in vitro neurogenesis (relative expression of Dcx)", "setting": "[1]; recombinant IL-6 50 ng/ml or TNF-α 20 ng/ml", "value": "approximately 50%"}, {"measurement": "increase in Hes1 mRNA expression relative to control", "setting": "Hes1 mRNA", "value": 7.7, "unit": "fold"}, {"measurement": "fraction of TUNEL-positive apoptotic cells", "setting": "[2]; mean+/-s.e.m., differentiating culture, IL-6 50 ng/ml", "value": "0.068+/−0.005"}, {"measurement": "fraction of TUNEL-positive cells that co-labeled with doublecortin", "setting": "[2]; mean+/-sem", "value": "0.83+/−0.02"}, {"measurement": "mitotic index (fraction of cells labeled with BrdU in 24 hours)", "setting": "[2]; stem cell cultures", "value": "95+/−1.7%"}, {"measurement": "BrdU labeling within the neuronal progeny", "setting": "[2]; subset of spontaneously forming immature neurons", "value": "82+/−1.6%"}]}
